Data taken from patent US20240207432A1 (BIOSION, published 2024).

Assays:
human TROP2-his protein [1] = molecular target: T1, human TROP2-his protein (human, UniProt P09758 27-274); assay: SPR Biacore, compared with BM2
T1 construct: Biotin-labelled in the ELISAs, unlabelled analyte in Biacore; also called biotin-labeled human TROP2-his protein; biotin human Trop2-his
T1 sequence: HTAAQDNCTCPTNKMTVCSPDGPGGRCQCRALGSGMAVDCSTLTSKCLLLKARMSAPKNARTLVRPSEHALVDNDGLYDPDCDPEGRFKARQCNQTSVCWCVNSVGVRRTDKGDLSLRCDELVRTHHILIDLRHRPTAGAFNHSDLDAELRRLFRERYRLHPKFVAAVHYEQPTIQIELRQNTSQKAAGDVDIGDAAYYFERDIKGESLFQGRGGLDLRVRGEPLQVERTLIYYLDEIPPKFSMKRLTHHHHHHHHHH

human TROP2-his protein [2] = molecular target: T1, human TROP2-his protein; assay: SPR Biacore T200, supernatant antibody captured on anti-human IgG CM5 chip, 40 nM human TROP2-his
Description: The goat anti-human IgG (GE healthcare, Cat #BR100839, Human Antibody Capture Kit) was covalently linked to a CM5 chip instead of goat anti-mouse IgG. […] The human TROP2-his protein at the concentration of 40 nM was used instead of serially diluted human TROP2-his protein.

human TROP2-his protein [3] = molecular target: T1, human TROP2-his protein; assay: SPR Biacore T200, benchmark captured on Protein G chip, TROP2-his analyte
Description: (§1) Un-reacted moieties on the chip (biosensor) surface were blocked with ethanolamine. […] The antigen-antibody association kinetics was followed for 2 minutes and the dissociation kinetics was followed for 10 minutes. The association and dissociation curves were fit to a 1:1 Langmuir binding model using BIAcore evaluation software.

[4] = molecular target: T2, cynomolgus TROP2-his protein (cynomolgus monkey, UniProt P09758 27-272 (human entry), limits assumed); assay: as above
T2 construct: no cleavage site is stated; also called Cynomolgus monkey TROP2-his protein; monkey TROP2
T2 chain: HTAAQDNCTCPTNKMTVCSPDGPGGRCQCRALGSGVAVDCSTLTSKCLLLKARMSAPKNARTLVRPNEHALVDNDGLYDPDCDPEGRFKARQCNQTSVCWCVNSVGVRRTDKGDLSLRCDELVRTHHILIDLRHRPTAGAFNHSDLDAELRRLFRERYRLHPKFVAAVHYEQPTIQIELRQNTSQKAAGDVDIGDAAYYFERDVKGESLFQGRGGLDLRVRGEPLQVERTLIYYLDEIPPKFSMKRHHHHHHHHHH
Description: as §1

human TROP2-his protein [5] = molecular target: T1, human TROP2-his protein; assay: capture ELISA, captured antibody, biotin human TROP2-his in solution, OD(450-630)
Description: (§2) Plates were washed once with wash buffer (PBS+0.05% v/v Tween-20, PBST) and then blocked with 200 μl/well blocking buffer (5% w/v non-fatty milk in PBST) for 2 hours at 37° C. […] Plates containing captured anti-TROP2 antibodies were incubated with biotin-labeled human TROP2-his protein (prepared in house, SEQ ID NO: 67, 56.7 ng/mL in 2.5% w/v non-fatty milk in PBST, 100 μl/well) for 40 minutes at 37° C., washed 4 times, and incubated with streptavidin conjugated HRP (1:10000 dilution in PBST, Jackson Immuno Research, Cat #016-030-084, 100 μl/well) for 40 minutes at 37° C. After a final wash, plates were incubated with 100 μl/well ELISA substrate TMB (Innoreagents, Cat #TMB-S-002) at room temperature. The reaction was stopped in 3-10 minutes at room temperature with 50 μl/well 1M H₂SO₄, and the absorbance of each well was read on a microplate reader using dual wavelength mode with 450 nm for TMB and 630 nm as the reference wavelength. The OD (450-630) values were plotted against antibody concentration. Data was analyzed using Graphpad Prism software and EC₅₀ values were reported.

human TROP2-his protein [6] = molecular target: T1, human TROP2-his protein; assay: capture ELISA, antibody captured on anti-human IgG Fc coat, biotin human TROP2-his in solution, OD(450-630)
Description: as §2
For the capture ELISA, AffiniPure Goat Anti-Human IgG, Fcγ fragment specific (Jackson Immuno Research, Cat #109-005-098) was used instead of AffiniPure Goat Anti-Mouse IgG, Fcγ fragment specific, 100 μl/well.

human TROP2-his protein [7] = molecular target: T1, human TROP2-his protein; assay: competitive ELISA: BM1 coated at 1 ug/mL, antibody premixed with biotin human TROP2-his; blocked: binding of TROP2-his to coated BM1 (self-competition)
Description: (§3) The mouse anti-TROP2 antibodies were tested for epitope binding in a competitive ELISA assay. […] ELISA plates were washed once with wash buffer (PBS+0.05% v/v Tween-20, PBST) and then blocked with 200 μl blocking buffer (5% w/v non-fatty milk in PBST) for 2 hours at 37° C. While blocking, the anti-TROP2 antibodies or controls were diluted with biotin labeled human TROP2-his protein (SEQ ID NO: 67, 34 ng/mL in 2.5% wA non-fatty milk in PBST), starting at 80 nM with a 5-fold serial dilution, and incubated at room temperature for 40 minutes. After plate washing for 4 times, the antibody/TROP2-his protein mixtures were added to the antibody coated plates, 100 μl per well. After incubation at 37° C. for 40 minutes, plates were washed 4 times again using wash buffer. Then the plates were added and incubated with 100 μl Peroxidase Streptavidin (1:10000 dilution in PBST buffer. Jackson Immunoresearch, Cat #016-030-084) for 40 minutes at 37° C. Plates were washed again using wash buffer. Finally, TMB was added and the reaction was stopped using 1M H₂SO₄. The absorbance of each well was read on a microplate reader using dual wavelength mode with 450 nm for TMB and 630 nm as the reference wavelength, and the OD (450-630) values were plotted against antibody concentration. Data was analyzed using Graphpad Prism software and IC₅₀ values were reported.

human TROP2-his protein [8] = molecular target: T1, human TROP2-his protein; assay: competitive ELISA: mouse A1E4F7D4 coated at 2 ug/mL, antibody premixed with biotin human TROP2-his; blocked: binding of TROP2-his to coated A1E4F7D4 (self-competition)
Description: as §3

human TROP2-his protein [9] = molecular target: T1, human TROP2-his protein; assay: competitive ELISA: mouse A1E11A12D1 coated at 2 ug/mL, antibody premixed with biotin human TROP2-his; blocked: binding of TROP2-his to coated A1E11A12D1 (self-competition)
Description: as §3

B1: huA1E4F7D4-V16 (antibody, human IgG1, kappa, V domains shown)
VH: QVQLVQSGAEVKKPGASVKVSCKASGYSFTTHWIHWVRQAPGQGLEWIGTIFPSNAYAVYNQKFRDRATMTADTSISTAYIELSRLRSDDTAVYYCARASYFDYWGQGTTVTVSS
VL: EIVLTQSPATLSLSPGERATLSCRASQNIGTSIHWFQQKPGGAPRLLIKYASESISGIPSRFSGSGSGTDFTLTISSLEPEDFAVYYCQHSHSWPFTFGQGTKLEIKR
notes: Positions of the X residues are given in the claims; also called humanized antibody huA1E4F7D4-V16
fold higher affinity than BM2 (human TROP2-his protein [1]): > 100 fold | Kd (human TROP2-his protein [2]): 0.137 nM | koff (human TROP2-his protein [2]): 0.000175 s⁻¹ | kon (human TROP2-his protein [2]): 1.28e+06 M⁻¹ s⁻¹

B2: benchmark (in house prepared sacituzumab) (antibody, human IgG1, kappa, V domains shown)
VH: SVQLQQSGSELKKPGASVKVSCKASGYTFTNYGMNWVKQAPGQGLKWMGWINTYTGEPTYTDDFKGRFAFSLDTSVSTAYLQISSLKADDTAVYFCARGGFGSSYWYFDVWGQGSLVTVSS
VL: DIQLTQSPSSLSASVGDRVSITCKASQDVSIAVAWYQQKPGKAPKLLIYSASYRYTGVPDRFSGSGSGTDFTLTISSLQPEDFAVYYCQQHYITPLTFGAGTKVEIKR
notes: also called BM; BM1
Kd (human TROP2-his protein [3]): 0.868 nM | Kd [4]: 0.557 nM | EC50 (human TROP2-his protein [5]): 0.141 nM | EC50 (human TROP2-his protein [6]): 0.27 nM | IC50 (human TROP2-his protein [7]): 0.632 nM

B3: mouse antibody A1E4F7D4 (antibody, V domains shown)
VH: QVQLQQSGAELAKPGTSVKMSCEASGYSFTTHWIHWMKQRPGQGLEWIGTIFPSNAYAVYNQKFRDRAIMTADRSSTTAYIQLTGLTSEDSAVYYCARASYFDYWGQGTTLTVSS
VL: DILLTQSPATLSVSPGERVTFSCRASQNIGTSIHWFQQRTTGSPRLLIKYASESISGIPSRFSGSGSGTDFTLHINSVESEDIAHYYCQHSHSWPFTFGSGTKLEIQ
notes: Mouse monoclonal IgG purified from hybridoma supernatant; also called Mouse A1E4F7D4
IC50 (human TROP2-his protein [8]): 0.0675 nM

B4: mouse antibody A1E11A12D1 (antibody, V domains shown)
VH: QVQLQQSGAELARPGASVKLSCMASGYTFTTYGISWVRQRTGQGLEWIGQIYPGSDYSYCDEDFKGKATLTADKSSSTAYMQLSSLTSEDSAVYFCARASYFDYWGQGTTLTVSS
VL: DILLTQSPAILSVSPGERVSFSCRASQTIGTAIHWYQQRANGSPRLLIKYASESISGIPSRFSGSGSGTDFALSINTVESEDFAYYYCQQSNNWPFTFGGGTKLEIR
notes: Mouse monoclonal IgG purified from hybridoma supernatant
IC50 (human TROP2-his protein [9]): 1 nM
